Measurements as given in patent US20100129369A1 (Eli Lilly, published 2010).
Residue numbers refer to the chain shown, from its start. Names and notes keep the numbering of the source.

B1: D11-S17Y (antibody, human IgG2, kappa, V domains shown)
VH: QVQLVQSGAEVKKPGSSVKVSCKASGYTFTSRYIHWVRQAPGQGLEWMGWIYPVTGDTYYNEKFKGRVTITADKSTSTAYMELSSLRSEDTAVYYCARGYGAFYYWGQGTLVTVSS
VL: EIVLTQSPGTLSLSPGERATLSCSVSSSISSTNLHWYQQKPGQAPRLLIYGTSYLASGIPDRFSGSGSGTDFTLTISRLEPEDFAVYYCQQWSSYPYSFGQGTKLEIKR
notes: Human engineered IgG2 kappa c-Met antibody; also called D11-S17Y IgG2
B2: D11-8B8 (antibody, human IgG2, kappa, V domains shown)
VH: B1 VH with N61I, Y104F
VL: B1 VL
notes: Human engineered IgG2 kappa c-Met antibody; also called Mab D11-8B8; D11-8B8 IgG2

Target: T1, human c-Met ECD-Fc-Flis (human)
T1 construct: c-Met ECD fused to Fc with flag- and His-tag at the C-terminus; also called human c-Met extracellular domain (ECD)-Fc-Flis fusion; human c-Met-Flis-Fc ECD
Test: HGF-blocking ELISA: HGF signal on coated c-Met ECD-Fc-Flis; Ab 7.63 ng/mL
Experimental: (§1) Wells of 96-well EIA/RIA high binding plates (Costar, #2592) are coated with 100 μL of human c-Met ECD-Fc-Flis (SEQ ID NO:72) (2 μg/mL) in Dulbecco's phosphate buffered saline (DPBS) overnight at room temperature; washed four times with wash buffer (Tris-buffered saline, pH 8.0, with 0.05% (v/v) polysorbate 20 (TWEEN®-20) (TBS-T) (BioFX Labs, # WSHW-1000-01) in a plate washer; blocked by adding 300 μL of blocking buffer (TBS-T plus 1% (w/v) bovine serum albumin (BSA) (Jackson Immuno, #001-000-162); and incubating for 60 min. at 37° C. Blocking buffer is then removed from the wells and 50 μL of antibodies in blocking buffer at final concentrations as indicated in Table 7 are added into each well, respectively. […] The plates with c-Met antibodies are incubated for 90 min. at 37° C. […] The wells are then washed four times with TBS-T in a plate washer. […] The plates are incubated for 90 min. at room temperature. The wells are again washed four times with TBS-T in a plate washer. 100 μL of a 1:200 dilution of streptavidin-horseradish peroxidase (HRP) (R&D Systems, DY998) in blocking buffer are added to each well. The plates are incubated for 30 min. at room temperature. The wells are washed four times with TBS-T in a plate washer. 100 μL/well of substrate solution (BioFx, #TMBW-1000-01) are then added, and the plates are incubated for 10 min. at room temperature. To stop the reaction, 100 μL/well of stop solution (BioFx, # LSTP-1000-01) are added. The samples are read at a wavelength of 450-570 nm on a microplate reader (Spectra, MAX 190) and no background is subtracted.

T1 sequence (chain, as listed by the source): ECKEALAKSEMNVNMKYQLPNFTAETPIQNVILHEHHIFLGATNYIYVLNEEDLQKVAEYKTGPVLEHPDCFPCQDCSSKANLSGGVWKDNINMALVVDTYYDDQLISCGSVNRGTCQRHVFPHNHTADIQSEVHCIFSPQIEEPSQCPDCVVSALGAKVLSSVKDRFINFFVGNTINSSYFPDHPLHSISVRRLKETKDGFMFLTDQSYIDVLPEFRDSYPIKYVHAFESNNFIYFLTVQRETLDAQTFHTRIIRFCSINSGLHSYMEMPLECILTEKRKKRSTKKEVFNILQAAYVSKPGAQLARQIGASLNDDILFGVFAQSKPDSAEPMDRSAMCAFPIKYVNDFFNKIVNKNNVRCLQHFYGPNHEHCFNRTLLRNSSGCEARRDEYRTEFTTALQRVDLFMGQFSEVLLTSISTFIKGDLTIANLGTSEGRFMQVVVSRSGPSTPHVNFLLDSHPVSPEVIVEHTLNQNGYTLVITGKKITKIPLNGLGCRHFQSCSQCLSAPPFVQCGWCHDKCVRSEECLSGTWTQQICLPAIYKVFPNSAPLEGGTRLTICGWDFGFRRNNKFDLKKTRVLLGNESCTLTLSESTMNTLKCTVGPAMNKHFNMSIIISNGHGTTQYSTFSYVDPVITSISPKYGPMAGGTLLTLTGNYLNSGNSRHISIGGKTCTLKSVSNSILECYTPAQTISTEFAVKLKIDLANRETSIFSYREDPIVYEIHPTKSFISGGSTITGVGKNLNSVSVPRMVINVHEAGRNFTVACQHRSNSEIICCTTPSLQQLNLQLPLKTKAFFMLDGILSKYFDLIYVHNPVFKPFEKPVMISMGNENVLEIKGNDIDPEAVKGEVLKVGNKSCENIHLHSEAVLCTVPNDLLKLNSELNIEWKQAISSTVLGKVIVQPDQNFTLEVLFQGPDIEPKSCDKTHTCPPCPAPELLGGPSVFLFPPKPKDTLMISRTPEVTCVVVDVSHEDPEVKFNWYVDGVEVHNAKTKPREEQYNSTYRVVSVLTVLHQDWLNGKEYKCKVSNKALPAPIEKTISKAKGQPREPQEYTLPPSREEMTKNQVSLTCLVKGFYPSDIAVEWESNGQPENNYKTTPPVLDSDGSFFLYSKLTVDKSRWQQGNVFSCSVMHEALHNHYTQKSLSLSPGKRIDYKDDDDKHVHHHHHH

Point of comparison: B1, “AVG A450 nm” value 2.08 A450 nm. Against it:
- B2 — higher, 2.41 A450 nm

Target: T2, human c-Met (human, UniProt P08581 25-1390)
Test: cell-based or functional assay

T2 sequence (P08581 25-1390): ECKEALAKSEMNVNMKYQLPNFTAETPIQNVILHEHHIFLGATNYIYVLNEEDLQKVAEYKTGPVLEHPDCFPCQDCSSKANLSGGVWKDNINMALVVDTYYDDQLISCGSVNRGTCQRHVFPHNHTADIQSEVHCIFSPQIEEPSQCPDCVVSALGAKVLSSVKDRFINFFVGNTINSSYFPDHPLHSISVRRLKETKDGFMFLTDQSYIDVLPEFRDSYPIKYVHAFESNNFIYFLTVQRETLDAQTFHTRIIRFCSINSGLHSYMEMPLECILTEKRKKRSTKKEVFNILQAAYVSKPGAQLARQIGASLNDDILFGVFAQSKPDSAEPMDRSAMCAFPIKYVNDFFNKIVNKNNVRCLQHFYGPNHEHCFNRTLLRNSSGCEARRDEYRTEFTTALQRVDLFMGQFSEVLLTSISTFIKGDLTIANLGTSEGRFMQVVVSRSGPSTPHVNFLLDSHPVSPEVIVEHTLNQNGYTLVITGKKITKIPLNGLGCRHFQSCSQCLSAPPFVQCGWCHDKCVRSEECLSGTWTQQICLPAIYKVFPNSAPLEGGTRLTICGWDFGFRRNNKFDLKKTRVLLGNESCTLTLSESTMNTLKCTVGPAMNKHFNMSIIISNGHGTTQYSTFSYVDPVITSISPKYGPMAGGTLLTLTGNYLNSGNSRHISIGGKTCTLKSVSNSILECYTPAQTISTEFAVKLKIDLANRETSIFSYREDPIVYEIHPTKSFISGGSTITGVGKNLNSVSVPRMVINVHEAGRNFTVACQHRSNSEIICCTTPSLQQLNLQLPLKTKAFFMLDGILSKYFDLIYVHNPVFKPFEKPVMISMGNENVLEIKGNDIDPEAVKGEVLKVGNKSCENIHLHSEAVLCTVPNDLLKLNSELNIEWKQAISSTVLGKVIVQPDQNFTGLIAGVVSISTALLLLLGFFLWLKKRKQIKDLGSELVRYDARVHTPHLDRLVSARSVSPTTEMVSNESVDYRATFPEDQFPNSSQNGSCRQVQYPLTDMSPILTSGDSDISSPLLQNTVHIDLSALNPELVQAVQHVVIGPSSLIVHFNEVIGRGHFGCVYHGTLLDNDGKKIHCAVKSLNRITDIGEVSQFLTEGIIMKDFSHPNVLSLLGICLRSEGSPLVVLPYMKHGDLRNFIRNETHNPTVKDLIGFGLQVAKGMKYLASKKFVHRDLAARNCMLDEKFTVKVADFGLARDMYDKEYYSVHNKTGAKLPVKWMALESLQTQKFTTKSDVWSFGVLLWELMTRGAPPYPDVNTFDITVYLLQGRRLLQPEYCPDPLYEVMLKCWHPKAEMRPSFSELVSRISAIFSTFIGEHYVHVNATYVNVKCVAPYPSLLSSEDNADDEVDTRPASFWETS

Point of comparison: B2, “AVG CPM, 3H-thymidine incorporation in MKN45 cells, Ab 0.0 ng/mL (no antibody)” value 50400 CPM. Against it:
- B1 — lower, 44200 CPM

Point of comparison: B1, “AVG CPM, 3H-thymidine incorporation in MKN45 cells, Ab 0.1 ng/mL” value 44600 CPM. Against it:
- B2 — lower, 41600 CPM

Point of comparison: B2, “AVG CPM, 3H-thymidine incorporation in MKN45 cells, Ab 0.4 ng/mL” value 43300 CPM. Against it:
- B1 — higher, 45300 CPM

Point of comparison: B1, “AVG CPM, 3H-thymidine incorporation in MKN45 cells, Ab 2.6 ng/mL” value 49900 CPM. Against it:
- B2 — lower, 44700 CPM

Point of comparison: B1, “AVG CPM, 3H-thymidine incorporation in MKN45 cells, Ab 15.4 ng/mL” value 39700 CPM. Against it:
- B2 — lower, 24400 CPM

Point of comparison: B2, “AVG CPM, 3H-thymidine incorporation in MKN45 cells, Ab 92.6 ng/mL” value 11100 CPM. Against it:
- B1 — higher, 21900 CPM

Point of comparison: B2, “AVG CPM, 3H-thymidine incorporation in MKN45 cells, Ab 555.6 ng/mL” value 11900 CPM. Against it:
- B1 — higher, 20900 CPM

Point of comparison: B2, “AVG CPM, 3H-thymidine incorporation in MKN45 cells, Ab 3333.3 ng/mL” value 11400 CPM. Against it:
- B1 — higher, 21200 CPM

Point of comparison: B1, “AVG CPM, 3H-thymidine incorporation in MKN45 cells, Ab 20000.0 ng/mL” value 19800 CPM. Against it:
- B2 — lower, 11200 CPM

Target: T1, human c-Met ECD-Fc-Flis
Test: HGF-blocking ELISA: HGF signal on coated c-Met ECD-Fc-Flis; Ab 30.52 ng/mL
Experimental: as §1

Point of comparison: B1, “AVG A450 nm” value 2.07 A450 nm. Against it:
- B2 — higher, 2.32 A450 nm

Target: T1, human c-Met ECD-Fc-Flis
Test: HGF-blocking ELISA: HGF signal on coated c-Met ECD-Fc-Flis; Ab 1.91 ng/mL
Experimental: as §1

Point of comparison: B2, “AVG A450 nm” value 2.48 A450 nm. Against it:
- B1 — lower, 1.98 A450 nm

Target: T1, human c-Met ECD-Fc-Flis
Test: HGF-blocking ELISA: HGF signal on coated c-Met ECD-Fc-Flis; Ab 122.07 ng/mL
Experimental: as §1

Point of comparison: B2, “AVG A450 nm” value 1.92 A450 nm. Against it:
- B1 — lower, 1.69 A450 nm

Target: T2, human c-Met
Test: cell-based or functional assay
Remark: another data set of the same source

Point of comparison: B2, “Mean Fluorescence (c-Met left on the surface of MKN45 cells, FACS), Ab 5.00 ug/mL” value 44.7. Against it:
- B1 — higher, 56.4

Target: T1, human c-Met ECD-Fc-Flis
Test: HGF-blocking ELISA: HGF signal on coated c-Met ECD-Fc-Flis; Ab 488.28 ng/mL
Experimental: as §1

Point of comparison: B1, “AVG A450 nm” value 1.29 A450 nm. Against it:
- B2 — higher, 1.3 A450 nm

Target: T1, human c-Met ECD-Fc-Flis
Test: HGF-blocking ELISA: HGF signal on coated c-Met ECD-Fc-Flis; Ab 0.48 ng/mL
Experimental: as §1

Point of comparison: B2, “AVG A450 nm” value 2.51 A450 nm. Against it:
- B1 — lower, 2.15 A450 nm

Target: T1, human c-Met ECD-Fc-Flis
Test: HGF-blocking ELISA: HGF signal on coated c-Met ECD-Fc-Flis; Ab 7812.50 ng/mL
Experimental: as §1

Point of comparison: B2, “AVG A450 nm” value 1.24 A450 nm. Against it:
- B1 — lower, 1.12 A450 nm

Target: T2, human c-Met
Test: cell-based or functional assay
Remark: another data set of the same source

Point of comparison: B2, “% inhibition of HGF stimulated phospho-Met (ELISA, HCT116 cells), Ab 0.0032 µg/mL” value -10.4%. Against it:
- B1 — higher, 9.48%

Point of comparison: B2, “% inhibition of HGF stimulated phospho-Met (ELISA, HCT116 cells), Ab 0.016 µg/mL” value -6.68%. Against it:
- B1 — higher, 2.53%

Point of comparison: B1, “% inhibition of HGF stimulated phospho-Met (ELISA, HCT116 cells), Ab 0.08 µg/mL” value -3.24%. Against it:
- B2 — higher, 10.5%

Point of comparison: B1, “% inhibition of HGF stimulated phospho-Met (ELISA, HCT116 cells), Ab 0.4 µg/mL” value 15.9%. Against it:
- B2 — higher, 35%

Point of comparison: B2, “% inhibition of HGF stimulated phospho-Met (ELISA, HCT116 cells), Ab 2 µg/mL” value 40.7%. Against it:
- B1 — lower, 31.4%

Point of comparison: B2, “% inhibition of HGF stimulated phospho-Met (ELISA, HCT116 cells), Ab 10 µg/mL” value 19.6%. Against it:
- B1 — lower, 16.7%

Target: T1, human c-Met ECD-Fc-Flis
Test: HGF-blocking ELISA: HGF signal on coated c-Met ECD-Fc-Flis; Ab 0.00 ng/mL (HGF only)
Experimental: as §1

Point of comparison: B2, “AVG A450 nm” value 2.43 A450 nm. Against it:
- B1 — the same, 2.43 A450 nm

Target: T1, human c-Met ECD-Fc-Flis
Test: HGF-blocking ELISA: HGF signal on coated c-Met ECD-Fc-Flis; Ab 1953.13 ng/mL
Experimental: as §1

Point of comparison: B1, “AVG A450 nm” value 1.23 A450 nm. Against it:
- B2 — higher, 1.43 A450 nm

Target: T1, human c-Met ECD-Fc-Flis
Test: HGF-blocking ELISA: HGF signal on coated c-Met ECD-Fc-Flis; Ab 125000.00 ng/mL
Experimental: as §1

Point of comparison: B2, “AVG A450 nm” value 1.38 A450 nm. Against it:
- B1 — lower, 1.35 A450 nm

Target: T1, human c-Met ECD-Fc-Flis
Test: HGF-blocking ELISA: HGF signal on coated c-Met ECD-Fc-Flis; Ab 31250.00 ng/mL
Experimental: as §1

Point of comparison: B2, “AVG A450 nm” value 1.31 A450 nm. Against it:
- B1 — lower, 1.17 A450 nm
